One may read the Kd as the constant that tells how readily two partners part at equilibrium. A high value points to weaker binding. Usually koff stands for a measure of how fast the partners let go of each other. Higher therefore signals a short-lived complex. What is called kon is the second-order rate constant of association. Low readings indicate slower complex formation, high ones faster complex formation.

To fix the notation:
B1: high affinity PDL-1 molecule L1A4 (ligand)
chain: WTVTVPKDLYVVEYGSNMTIECKFPVEKQLDLAALQVFWMMEDKNIIQFVHGEEDLKVQHSSYRQRARLLKDQLSLGNAALQITDVKLQDAGVYTCLISYGGADYKRITVKVNAPYNKINQRILVVDPVTSEHELTCQAEGYPKAEVIWTSSDHQVLSGKTTTTNSKREEKLFNVTSTLRINTTTNEIFYCTFRRLDPEENHTAELVIPEL
B2: high affinity PDL-1 molecule L3B3a (ligand)
chain: FTVTVPKDLYVVEYGSNMTIECKFPVEKQLDLAALQVFWMMEDKNIVSFVHGEEDLKVQHSSYRQRARLLKDQLSLGNAALQITDVKLQDAGVYTCLIAYKGADYKRITVKVNAPYNKINQRILVVDPVTSEHELTCQAEGYPKAEVIWTSSDHQVLSGKTTTTNSKREEKLFNVTSTLRINTTTNEIFYCTFRRLDPEENHTAELVIPEL
B3: high affinity PDL-1 molecule L1C2 (ligand)
chain: FTVTVPKDLYVVEYGSNMTIECKFPVEKQLDLAALQVNWFMEDKNIIQFVHGEEDLKVQHSSYRQRARLLKDQLSLGNAALQITDVKLQDAGVYVCLISYGGADYKRITVKVNAPYNKINQRILVVDPVTSEHELTCQAEGYPKAEVIWTSSDHQVLSGKTTTTNSKREEKLFNVTSTLRINTTTNEIFYCTFRRLDPEENHTAELVIPEL
B4: high affinity PDL-1 molecule L2H3 (ligand)
chain: FTVTVPKDLYVVEYGSNMTIECKFPVEKQLDLAALQVHWFMEDKNILSFVHGEEDLKVQHSSYRQRARLLKDQLSLGNAALQITDVKLQDAGVYRCMISYGGADYKRITVKVNAPYNKINQRILVVDPVTSEHELTCQAEGYPKAEVIWTSSDHQVLSGKTTTTNSKREEKLFNVTSTLRINTTTNEIFYCTFRRLDPEENHTAELVIPEL
B5: high affinity PDL-1 molecule L3B3 (ligand)
chain: FTVTVPKDLYVVEYGSNMTIECKFPVEKQLDLAALQVFWMMEDKNIIQFVHGEEDLKVQHSSYRQRARLLKDQLSLGNAALQITDVKLQDAGVYTCLIAYKGADYKRITVKVNAPYNKINQRILVVDPVTSEHELTCQAEGYPKAEVIWTSSDHQVLSGKTTTTNSKREEKLFNVTSTLRINTTTNEIFYCTFRRLDPEENHTAELVIPEL
B6: high affinity PDL-1 molecule L2F5 (ligand)
chain: FTVTVPKDLYVVEYGSNMTIECKFPVEKQLDLAALEVHWFMEDKNISSFVHGEEDLKVQHSSYRQRARLLKDQLSLGNAALQITDVKLQDAGVYRCMISYGGADYKRITVKVNAPYNKINQRILVVDPVTSEHELTCQAEGYPKAEVIWTSSDHQVLSGKTTTTNSKREEKLFNVTSTLRINTTTNEIFYCTFRRLDPEENHTAELVIPEL
B7: high affinity PDL-1 molecule L3B3b (ligand)
chain: FTVTVPKDLYVVEYGSNMTIECKFPVEKQLDLAALQVFWMMEDKNIVSFVHGEEDLKVQHSSYRQRARLLKDQLSLGNAALQITDVKLQDAGVYVCLIAYKGADYKRITVKVNAPYNKINQRILVVDPVTSEHELTCQAEGYPKAEVIWTSSDHQVLSGKTTTTNSKREEKLFNVTSTLRINTTTNEIFYCTFRRLDPEENHTAELVIPEL
B8: high affinity PDL-1 molecule L3B3C (ligand)
chain: WTVTVPKDLYVVEYGSNMTIECKFPVEKQLDLAALQVFWMMEDKNIVSFVHGEEDLKVQHSSYRQRARLLKDQLSLGNAALQITDVKLQDAGVYVCLIAYKGADYKRITVKVNAPYNKINQRILVVDPVTSEHELTCQAEGYPKAEVIWTSSDHQVLSGKTTTTNSKREEKLFNVTSTLRINTTTNEIFYCTFRRLDPEENHTAELVIPEL
B9: high affinity PDL-1 molecule L2A6 (ligand)
chain: FTVTVPKDLYVVEYGSNMTIECKFPVEKQLDLAALQVHWFMEDKNIASFVHGEEDLKVQHSSYRQRARLLKDQLSLGNAALQITDVKLQDAGVYRCMISYGGADYKRITVKVNAPYNKINQRIRVVDPVTSEHELTCQAEGYPKAEVIWTSSDHQVLSGKTTTTNSKREEKLFNVTSTLRINTTTNEIFYCTFRRLDPEENHTAELVIPEL
B10: high affinity PDL-1 molecule L3C7 (ligand)
chain: FTVTVPKDLYVVEYGSNMTIECKFPVEKQLDLAALEVHWFMEDKNIIQFVHGEEDLKVQHSSYRQRARLLKDQLSLGNAALQITDVKLQDAGVYTCLIGYKGADYKRITVKVNAPYNKINQRILVVDPVTSEHELTCQAEGYPKAEVIWTSSDHQVLSGKTTTTNSKREEKLFNVTSTLRINTTTNEIFYCTFRRLDPEENHTAELVIPEL
B11: high affinity PDL-1 molecule L2G10 (ligand)
chain: FTVTVPKDLYVVEYGSNMTIECKFPVEKQLDLAALQVHWFMEDKNIYSFVHGEEDLKVQHSSYRQRARLLKDQLSLGNAALQITDVKLQDAGVYRCMISYGGADYKRITVKVNAPYNKINQRILVVDPVTSEHELTCQAEGYPKAEVIWTSSDHQVLSGKTTTTNSKREEKLFNVTSTLRINTTTNEIFYCTFRRLDPEENHTAELVIPEL
B12: high affinity PDL-1 molecule L1F2 (ligand)
chain: FTVTVPKDLYVVEYGSNMTIECKFPVEKQLDLAALQVNWLMEDKNIIQFVHGEEDLKVQHSSYRQRARLLKDQLSLGNAALQITDVKLQDAGVYLCLISYGGADYKRITVKVNAPYNKINQRILVVDPVTSEHELTCQAEGYPKAEVIWTSSDHQVLSGKTTTTNSKREEKLFNVTSTLRINTTTNEIFYCTFRRLDPEENHTAELVIPEL
B13: high affinity PDL-1 molecule L2D7 (ligand)
chain: FTVTVPKDLYVVEYGSNMTIECKFPVEKQLDLAALEVHWFMEDKNILSFVHGEEDLKVQHSSYRQRARLLKDQLSLGNAALQITDVKLQDAGVYRCMISYGGADYKRITVKVNAPYNKINQRILVVDPVTSEHELTCQAEGYPKAEVIWTSSDHQVLSGKTTTTNSKREEKLFNVTSTLRINTTTNEIFYCTFRRLDPEENHTAELVIPEL
B14: high affinity PDL-1 molecule L2B6 (ligand)
chain: FTVTVPKDLYVVEYGSNMTIECKFPVEKQLDLAALEVHWFMEDKNIVSFVHGEEDLKVQHSSYRQRARLLKDQLSLGNAALQITDVKLQDAGVYRCMISYGGADYKRITVKVNAPYNKINQRIRVVDPVTSEHELTCQAEGYPKAEVIWTSSDHQVLSGKTTTTNSKREEKLFNVTSTLRINTTTNEIFYCTFRRLDPEENHTAELVIPEL
B15: high affinity PDL-1 molecule L2B8 (ligand)
chain: FTVTVPKDLYVVEYGSNMTIECKFPVEKQLDLAALQVHWFMEDKNIVSFVHGEEDLKVQHSSYRQRARLLKDQLSLGNAALQITDVKLQDAGVYRCMISYGGADYKRITVKVNAPYNKINQRILVVDPVTSEHELTCQAEGYPKAEVIWTSSDHQVLSGKTTTTNSKREEKLFNVTSTLRINTTTNEIFYCTFRRLDPEENHTAELVIPEL
B16: high affinity PDL-1 molecule L2F4 (ligand)
chain: FTVTVPKDLYVVEYGSNMTIECKFPVEKQLDLAALEVHWFMEDKNIFSFVHGEEDLKVQHSSYRQRARLLKDQLSLGNAALQITDVKLQDAGVYRCMISYGGADYKRITVKVNAPYNKINQRILVVDPVTSEHELTCQAEGYPKAEVIWTSSDHQVLSGKTTTTNSKREEKLFNVTSTLRINTTTNEIFYCTFRRLDPEENHTAELVIPEL
B17: high affinity PDL-1 molecule L3B3d (ligand)
chain: WTVTVPKDLYVVEYGSNMTIECKFPVEKQLDLAALQVFWMMEDKNILSFVHGEEDLKVQHSSYRQRARLLKDQLSLGNAALQITDVKLQDAGVYVCLIAYKGADYKRITVKVNAPYNKINQRILVVDPVTSEHELTCQAEGYPKAEVIWTSSDHQVLSGKTTTTNSKREEKLFNVTSTLRINTTTNEIFYCTFRRLDPEENHTAELVIPEL
B18: high affinity PDL-1 molecule L2C4 (ligand)
chain: FTVTVPKDLYVVEYGSNMTIECKFPVEKQLDLAALQVHWWMEDKNIVSFVHGEEDLKVQHSSYRQRARLLKDQLSLGNAALQITDVKLQDAGVYRCMISYGGADYKRITVKVNAPYNKINQRILVVDPVTSEHELTCQAEGYPKAEVIWTSSDHQVLSGKTTTTNSKREEKLFNVTSTLRINTTTNEIFYCTFRRLDPEENHTAELVIPEL

T1 sequence (Q15116 33-150 limits assumed): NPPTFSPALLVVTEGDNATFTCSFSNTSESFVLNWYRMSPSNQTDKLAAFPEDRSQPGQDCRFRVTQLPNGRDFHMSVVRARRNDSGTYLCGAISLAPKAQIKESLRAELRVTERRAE

The assay has as its target T1, PD-1 molecule (refolded, purified and biotinylated PD-1 of Example 2) (UniProt Q15116 33-150, biotinylated with BirA enzyme (site not stated)).
T1 construct: also called Programmed Death-1
Description: SPR (BIAcore T200), single-cycle kinetics; biotinylated PD-1 captured via streptavidin, PDL-1 variant in solution. As to the method: The anti-streptavidin antibody (GenScript) was added to the coupling buffer (10 mM sodium acetate buffer, pH 4.77). The antibody was then flowed through a CMS chip previously activated with EDC and NHS to immobilize the antibody on the chip surface. Finally, the unreacted activation surface was blocked with a solution of ethanolamine hydrochloride to complete the coupling process.
A low concentration of streptavidin is allowed to flow over the surface of the antibody-coated chip, then the biotinylated PD-1 is passed through the detection channel and the other channel is used as a reference channel. Then, 0.05 mM biotin was passed through the chip at a flow rate of 10 μL/min for 2 min to block the remaining binding sites of streptavidin. The single-cycle kinetic analysis method was used to measure its affinity. […] The binding time for each injection was 120 s, and it was disassociated for 600 s after the last injection. The chips were regenerated with 10 mMGly-HCl, pH 1.75 after each round of assays. Kinetic parameters were calculated using BIAcore Evaluation software.
In general terms: Surface plasmon resonance follows binding to a sensor surface in real time, without labels.
Regarding B1, the equilibrium dissociation constant (Kd) came to 0.914 µM, the koff amounted to 0.0439 s⁻¹ and the on-rate constant (kon) was determined as 48000 M⁻¹ s⁻¹.
In the same order, the values of B2 are 0.557 µM, 0.09 s⁻¹ and 162000 M⁻¹ s⁻¹.
Regarding B3, the dissociation constant (Kd) is 0.751 µM, the dissociation rate constant (koff) amounted to 0.0376 s⁻¹ and the kon was found to be 50100 M⁻¹ s⁻¹.
As to B4, the Kd was determined as 8.97 µM, the off-rate (koff) amounted to 0.153 s⁻¹ and the kon was determined as 17100 M⁻¹ s⁻¹.
In the same order, the values of B5 are 0.499 µM, 0.071 s⁻¹ and 142000 M⁻¹ s⁻¹.
B6 yielded a Kd of 10.1 µM, an off-rate (koff) of 0.122 s⁻¹ and a kon of 12200 M⁻¹ s⁻¹.
The molecule B7 displayed a Kd of 0.666 µM, an off-rate constant (koff) of 0.0573 s⁻¹ and an association rate constant (kon) of 86000 M⁻¹ s⁻¹.
For B8, in that order: 0.648 µM, 0.044 s⁻¹ and 67800 M⁻¹ s⁻¹.
B9 showed a Kd of 4.74 µM, a koff of 0.0458 s⁻¹ and an association rate constant (kon) of 9670 M⁻¹ s⁻¹.
In the same order, the values of B10 are 0.75 µM, 0.0329 s⁻¹ and 43900 M⁻¹ s⁻¹.
The molecule B11 displayed a dissociation constant (Kd) of 4.6 µM, a koff of 0.178 s⁻¹ and a kon of 38700 M⁻¹ s⁻¹.
In the same order, the values of B12 are 3.44 µM, 0.104 s⁻¹ and 30200 M⁻¹ s⁻¹.
As for B13, the Kd was 10.9 µM, the off-rate (koff) came to 0.123 s⁻¹ and the kon is 11300 M⁻¹ s⁻¹.
In the same order, the values of B14 are 10.3 µM, 0.134 s⁻¹ and 13000 M⁻¹ s⁻¹.
For B15, the dissociation constant Kd is 11.7 µM, the koff was 0.15 s⁻¹ and the kon is 12800 M⁻¹ s⁻¹.
For B16, in that order: 7.54 µM, 0.154 s⁻¹ and 20500 M⁻¹ s⁻¹.
For the molecule B17, the Kd stood at 0.964 µM, the koff worked out at 0.0526 s⁻¹ and the on-rate (kon) is 54500 M⁻¹ s⁻¹.
B18 gave a Kd of 11.2 µM, a dissociation rate constant (koff) of 0.124 s⁻¹ and an association rate constant (kon) of 11000 M⁻¹ s⁻¹.

Source of the values: patent publication US20180291081A1 (GUANGZHOU INSTITUTES OF BIOMEDICINE AND HEALTH CHINESE …, published 2018).
